Measurements as given in the supplement of paper PMC12636428.

Tested on: Saccharomyces cerevisiae
Test: transcriptional activation domain activity (GFP:mCherry ratio, weighted mean of sorted bins, harmonized to initial dataset scale) (arbitrary fluorescence ratio units); higher = stronger transcriptional activation
Conditions: beta-estradiol 1 µM; induction time 4 h
In short: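 Barcoded tiles were sequenced after cells were sorted into 8 bins by GFP:mCherry ratio. Before sorting, cultures had been diluted 1:5 into SC with 1 uM beta-estradiol and held for 4 hours at 30 °C. The tiles were fused to an estradiol-inducible synthetic transcription factor and integrated at URA3 in yeast diploids carrying a GFP reporter. Activation activity is the read-weighted mean of bin median fluorescence, averaged over barcodes and linearly mapped onto the initial dataset scale, and tiles under 50 reads were left out.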

Row | Sequence | transcriptional activation domain activity
1 | MRFLFFLLLFLFFFPPPLPPISSLQGCFFVIFFFGFFIFSSFLLFYAVFFFIV | 39000
2 | MRFLLLSFPCNHHPSLSLYISSISLFLLRPFIFLSLLFFCIVSYYLGVCVVWG | 53500
3 | MRFLLTIIHFFLTLFLSYTLFLSVILLFSRLYYFLSIIRSSYAIIWIFFLFIL | 52000
4 | MRFPPLLFSFFLFFLFFFHLFLFLFHNLFFFYQSFFSSQPLFSFSLSFLSSSL | 42800
5 | MRFSSLLFLFCLFHFPLFFFFFSSFFNFCLPILFLPNLFSPFLFPFSPHLFFF | 51900
6 | MRFWFLYLFLLFGIGWVGLALLYYYRIFCLFLCNIRILFLLVCFISTHSIIYS | 46200
7 | MRGCLVAGITLLTRFVVASCGRRNVGRMRHRPRGQPLPSSLMLLVVICREFRK | 66500
8 | MRGFFWQILLQTCLLPIVTCTLLPTPLMPFCALQHTPLSNLFLLLSWLYFLPY | 48400
9 | MRGFYYYLFCLFAEFGIHGVLFHGGFFLLLFFFLSSSLWLALTRFRWPFPFVF | 57800
10 | MRGLCRSLKLCKLFVTMFDGWMMLFSFFFFFLFLLFFYYYSCCSDGFLLCFFL | 42500
11 | MRGTSLFLFYFISFLSLFLFQLLHFFFFSYFLFRYFVSIIIIFFLIQVVFGLV | 53200
12 | MRGVCSFCSFCSFSFLFLFLFLFLFFSFFSFFSFCFFLFFPSFLSVSLSFLLS | 71100
13 | MRHEHGGMAFNVFFLWTFMYLCLWLRVNVLCFMSISLFLMSLFFLFFLVWLSG | 51200
14 | MRHVASRWPILPRLLVPIFHLLAWFLIPVGRLCIRSFPLIFSVVCFLCAFSSC | 51100
15 | MRIAIYWRSFSVSTSFFFLPGYSFFLSNWVLFLVYFYDTGCGVCFLPFIMIFF | 72700
16 | MRIFVFFSLLFLFFFCYMYYICLLLFCTLQTYIFILYHIIPYSILIYIYYISN | 59200
17 | MRIIIFMSLLLLKIIMILLLLLLRIKFNWFSFFSILKMLLSMKIMMLFLFLLL | 35900
18 | MRILFTICRYFPLLFYPFYLWAWVPVHSKELCEKLICPFGQYLCILILLCACW | 56600
19 | MRILGCVVNAHLKQMIHRNSLLIIPECPRMFWLGCQTRCVVLGEWIGLHANRF | 69300
20 | MRILQFFSFLYLLLYFSRTLLIVIYTLVILLLNQLLVFFKFLSLFFAFFWYVF | 41400
21 | MRIRYEMSWGFLLSFLLSNGRRKIDHGTSSLRMTLGFLIAHRVYMMIILNFYT | 47200

Row | Sequence | transcriptional activation domain activity
22 | MRKFLFQSFDILYLLIFLSFFFILSLFFFILIIFGSSPFIYFIFYFNHFFFFD | 26900
23 | MRKLQVRSWSGLHVLSHFQIFDLLALIPGGWCNQILWLQGHHQWYIVILFVFT | 65800
24 | MRKNGSILSFRSFPPSPTFLPSFLLFFFSFPFFPVIFFQTPLLFLLLFFIYWG | 42000
25 | MRKTCRFICNVTRMRTVWIKALERVCARHGVFKPTFPLQRMSILDLEYASLGP | 52200
26 | MRKVLANVPGPGGTWGLGFISGVLLVNPKRLLGYLLRCWSTHHGKLARCLWPI | 47600
27 | MRLCFAKYHFPPPSTFFPPLLFSLLCPVAFYANYCPFFFFFLFLFPYSFFVQE | 63600
28 | MRLEVFCPLANATSHAYLIFCIMHCLYFIRHFFCCRSLSTFYSSRLLLLFHFI | 80900
29 | MRLFRECALFDTFMLYLNGDCMWVCLCLCFYLDFTVLGWFIIYGLVYCRVDDR | 56000
30 | MRLFYSSFLLFSFLPFLPLLWFFNYLIAIVFPFFFFFFLSFVMGLISFRFLLF | 40200
31 | MRLGQLYSLFLFPSFLLSFFIMPLVSVTKYTPGVDNIYFFFFLFFFFFLFFFL | 36900
32 | MRLHCFFLFVFFFSLFSFLLATLCHSPLPLPFVHVSFFPPSLLPLPIFALDPF | 33100
33 | MRLIYLPIIFCRLPSHGWTIWMPIIRALSLLVFSLIYLLFIGDLPALTLTIFF | 50900
34 | MRLLAYGLMSSGVLLAHVVHIWRQRGFFFATCIGLTNHNFGLLVIMNFCLFCS | 56000
35 | MRLLYCFFHPGRIFDWFCWIHHVFLLVFGWLPLDWLYNLWGLGSLPWTLQNMP | 47300
36 | MRLNICKDLWIHSAFRMLSDISAASLFLVSRSYFIIIFTVASLGYTRMLSLYH | 51900
37 | MRLRVFFFISSFMWLLLVSFYCSFFSFAFTLFFFRFPPFFFSLFRFTLLPSPS | 63700
38 | MRLSRCCVFILLFFFDLVYYYPFLLLFNGFGGICIFLVLKRSHRETEFICFMQ | 60600
39 | MRLVYFCAGIYFLVADLVFSLFLFSFSSLLTLFFSPFFSLSLGLTLLEIQFTF | 51800
40 | MRLYCKVVYCHLFVSYLLPLSLTAHLNHLSKGRSLAIFCLLVLILSSFLFSFS | 27000
41 | MRMLLYLLIHFIFMGVWTWLSWFSEVELLMVVLGLLETCFELTDMCGFCIFFV | 69500
42 | MRNDRGERKKEKRRREARERKKKERKGRREKGGKRKEEDEEKGRGGRGRRNGG | 28600

Row | Sequence | transcriptional activation domain activity
43 | MRNEYYFFTSLSCIFSVLCFVSSFFYLVFSSLVLFFFFFLTGLFYLKFFCWVF | 39400
44 | MRPLSWRLWRTGDSNRELLSHFLFYLGLFFFFREWLFLVLFFLFLLLLLPGVR | 26600
45 | MRQARGLHCRCPFGYRASLVLCLYLDVLFEGGFLYFYFFVPFFHATTFFFFLL | 37700
46 | MRQCCRCGDALKRCVILAVIAFGSVPPVYVGLVACARCRVWLFSPGLLYLKWF | 55500
47 | MRQRLGGQLFSKSFFYALLVTSTWSSKLVYLSPHFTSLPPLLILLYAPTFLLL | 60600
48 | MRQVHIVFSGRDSGRESDIEVVSETSVFHDAAFVLGCVLVRGRSFAAPLLTAL | 32700
49 | MRRFSLFFSLSSLCLWLYVCWIGWIDGFLLVDVMVHLQHVYCVLTILIFLFSL | 22300
50 | MRRLGWVGVSGLVSFLFTSFFFLVSFFLLLLLLLLTHFSFLFFFFAFTFILMM | 45500
51 | MRRLKFGFFPPHFAGFFLSVVLHIIIVYNLWVPFVLLFLLISFLSFLSCIQSF | 54200
52 | MRRLPTAMVSCFGVYAVSHNLSLPFVSSLFPCFIQFCARIILFSLVGYSFWSL | 74500
53 | MRRVARSTKGGKVRSLAALVVVGNGNGVGGFGEGRAVDSAQAVAKATAAATKN | 32500
54 | MRRVTQQTGKGKIPSMYSLVVIGNGDGLVGYGEAKDDEPAAAREKATAKALRS | 46400
55 | MRSMKRTFFFFFLVFDLRYYSVLYYILYLYPFPFFLFLFIFYFPLFLFLSTAS | 54500
56 | MRSSLPKLYRYGCLYWITGLCIFVYILYERRYYCCHNMPYFFHQPWFLCLSSL | 68800
57 | MRSTGLESIKGLGTGYVGICGFIYLCISTYMHFLIPNIPNWIFFLLFLYPFLS | 59300
58 | MRTGSNFVLFAFFCLVLMFTLTFILVFVCCASVGGILYPFRFLLSFVWILVSL | 28200
59 | MRTHVLSMHSALLLLHCLRAVWLAPVSRPRQCLTSPAFCSSTRLAIILGGVRH | 77900
60 | MRTLHGLVYFFPFILYHRLVFLWLRVLALSRYVFLFSVCFPWSVLVTFVIFLY | 80100
61 | MRTLKLCSSCKHLGPEIYAFGWVCTNLSCQILFRHSGFHSLKGVTYSTSFLAQ | 57400
62 | MRTLLMCHANRGIGFFWSGVFLWKVNILAGNGGYSSMCAYVNWLRLTWFSFVA | 40900
63 | MRTPSTSPFDFCFFFAFSFLLLCWPVIPFILLFYILKFLWTYPFVFCVLYFIE | 37600

Row | Sequence | transcriptional activation domain activity
64 | MRVCVTSLFFFPLSFFPILIKLFLLSHHLFPTSNPFSFVFSSFAPFLPAFSFI | 40900
65 | MRVGVGGLLWLLCGSPFFFLHFISFVFLFFWSLLFFLFCRALHTPFSSYYNYH | 72000
66 | MRWFFLLFWVFLSFFLSLQFFSILSFVCGSLACSISLLCRFSLRGAGFCWLGG | 47600
67 | MRWNRIIIGSHVSVLWMIGYVFTLLLTLVPSPLLEFRYFILPFIFFCIHLPPP | 48100
68 | MRWTSTISFFLLPLGFFFSFHPFHIPFSTFLVSFEICIFFLSFFFSFLPIFLF | 58500
69 | MRYGHLYTWIIILKYSLVLHQVFSLYLCIIFLAIIVFLIFVYWLMLEIFLVLF | 80500
70 | MRYRPSEDLGKKLLLLFIYILFRGKLVVNPFHFFSSFLSFFFFFFFVFFALLL | 35900
71 | MRYRVNYMSTQGIHYSPFLPWIINIFKPNIMLICLFSFLPYFILFIMKSMLVL | 74600
72 | MSAAEDNKPVEAVEKVEEAPQAEEVPKVEEAPAQEEAGATASEKKDANILKTT | 25700
73 | MSAATATKPPATGTTPRREATSRASAPSPAAASRTPARSSTPTATASATTSSP | 18000
74 | MSADYAIGQFRYLAKLLLVHGHWNTYRIGVLHQVFFYKNLIWTGCLLIFQIFT | 45800
75 | MSAFSGEDAPSPEGLDRKRKRQRTALSCTECKRRKIKCDRSQPCSSCIRRKVP | 42300
76 | MSAPPEEVASTQSAQPTTEPALIGEPVKRGRGRPKGSKNKAKPSTAATATGEA | 34800
77 | MSAPVEEKMAALNVNDKKPAAPKADKKAKKSKGTEGEYPLEFSPAPEYLQHRI | 30300
78 | MSASPPTGSGGTDERQRQRVTRACEPCRRKKIRCDGRKPCSACADAQAGNGCA | 34300
79 | MSATEATAVPAPAEEVKVVETPAVDPVPEAPAAEESAPATEVKKEERPKSPSL | 54600
80 | MSAVCMFLRNRALFIHIFSVALTLFHVGAFQLLHCNCAYGFLVWGFLGCSLSL | 78500
81 | MSCLDWNVFVFFFYLSILIFRLITHHYLSVFDLFFLYPFFLFLFTFPPTSFLL | 49500
82 | MSDAAAPAPAPVEEVKPAEAAPEVVPAPRPLRRSPRPRRLRPLRPPPPSAAAE | 28400
83 | MSDATPTSARKAMAPRRSHRKSRLGCANCKRRRIKCDEQKPACSNCVKHDIRC | 24400
